Test [1] addresses T1, human C5a (human, UniProt P01031 678-751).
T1 construct: also called hC5a; free human C5a
T1 sequence: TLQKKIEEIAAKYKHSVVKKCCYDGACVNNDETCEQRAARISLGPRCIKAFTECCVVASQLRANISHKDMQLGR
In words: ELISA. On the technique in general: An ELISA detects its analyte on a solid surface through an enzyme-linked reagent.

Test [2] has as its target T1, human C5a. Briefly: SPR (Biacore); antibody captured by anti-human Fc on CM5 chip, human C5a 0.6-5.9 nM as analyte; 1:1 Langmuir fit. The protocol: See, e.g., Karlsson and Larsson (2004) Methods Mol Biol 248:389-415. […] The surface was regenerated with 20 mM HCl, 0.02% P20 after each cycle to remove bound antibody and antigen. The data was evaluated using Biacore BlAevaluation software using a 1:1 Langmuir Model Fit (Rmax:Global Fit; R1:Local Fit). Kinetics information such as (kₐ: Association Rate constant), (kd:Dissociation Rate constant) and KD (Equilibrium Dissociation constant) was obtained from the fit. These experiments were for screening purposes with a minimal number of analyte concentrations (3 to 4) with 1 duplicate.
(SPR reads the build-up and loss of mass on a sensor chip optically.)

B1: 5an177ME (antibody, V domains shown)
VH: EVKLVESGGGLVKPGGSLKLSCAASGITFSSYYMAWVRQTPDKRLEWVATISSGGSYTYYPDNVKGRFTISRDNAKNTLYLQMSSLKSEDTAMYYCTRYYEDDAMDYWGQGTSVTVSS
VL: EIVLTQSPAIMSASPGEKVTMTCSASSSVSYMHWYQQKSGTSPKRWIYDTSKLASGVPARFSGSGSGTSYSLTISSMEAEDAATYYCQQWSSNPLTFGAGTKLELKR
notes: Murine
For the molecule B1, the binding result in test [1] is “binds”.

B2: BNJ369 (antibody, human IgG2, kappa)
heavy: QVQLVQSGAEVKKPGASVKVSCKASGYTFTDYSMDWVRQAPGQGLEWMGAIHLNTGYTNYNQKFKGRVTMTRDTSTSTVYMELSSLRSEDTAVYYCARGFYDGYSPMDYWGQGTTVTVSSASTKGPSVFPLAPCSRSTSESTAALGCLVKDYFPEPVTVSWNSGALTSGVHTFPAVLQSSGLYSLSSVVTVPSSNFGTQTYTCNVDHKPSNTKVDKTVERKCCVECPPCPAPPVAGPSVFLFPPKPKDTLMISRTPEVTCVVVDVSQEDPEVQFNWYVDGVEVHNAKTKPREEQFNSTYRVVSVLTVLHQDWLNGKEYKCKVSNKGLPSSIEKTISKAKGQPREPQVYTLPPSQEEMTKNQVSLTCLVKGFYPSDIAVEWESNGQPENNYKTTPPVLDSDGSFFLYSRLTVDKSRWQEGNVFSCSVMHEALHNHYTQKSLSLSLGK
light: DIVMTQSPDSLAVSLGERATINCRASESVDSYGNSFMHWYQQKPGQPPKLLIYRASNLESGVPDRFSGSGSGTDFTLTISSLQAEDVAVYYCQQSNEDPYTFGGGTKVEIKRTVAAPSVFIFPPSDEQLKSGTASVVCLLNNFYPREAKVQWKVDNALQSGNSQESVTEQDSKDSTYSLSSTLTLSKADYEKHKVYACEVTHQGLSSPVTKSFNRGEC
notes: Humanized full length IgG
A word on the Kd: it is the equilibrium constant for the complex coming apart. As a reminder, the koff is the rate constant with which the complex falls apart. Broadly, the kon is a measure of how fast the partners come together. In test [2], B2 came in with a Kd of 0.0531 nM, a koff of 0.000223 s⁻¹ and a kon of 4.19e+06 M⁻¹ s⁻¹.

B3: BNJ381 (antibody, human IgG2, kappa, V domains shown)
VH: QVQLVQSGAEVKKPGASVKVSCKASGYTFTDYSMDWVRQAPGQGLEWMGAIHLNTGYTNYNQKFKGRVTMTRDTSTSTVYMELSSLRSEDTAVYYCARGFYDGYSPMDYWGQGTTVTVSS
VL: DIVMTQSPDSLAVSLGERATINCRASESVDSYGNSFMHWYQQKPGQPPKLLIYWASTRESGVPDRFSGSGSGTDFTLTISSLQAEDVAVYYCQQSNEDPYTFGGGTKVEIKR
notes: Humanized full length IgG; Light chain CDR2 is humanized
In test [2], B3 displayed a Kd of 0.0815 nM, a koff of 0.000209 s⁻¹ and a kon of 2.57e+06 M⁻¹ s⁻¹.

B4: 5an047 (antibody, V domains shown)
VH: EVQLQQSGPELVKPGASVRISCKASGYTFSDYYYMNWVKKSHGKSLEWIGYIFPKTGGTHYNQRFKGKATLTVDKSSSTAYMELRSLTSEDSAVYYCASGPFAYWGQGTLVTVSA
VL: EIVLTQSPAIMSASPGEKVTMTCRASSSVSSSYLHWYQQKSGASPKLWIYSTSNLASGVPARFSGSGSGTSYSLTISSVEAEDAATYYCQQYSGYPLTFGAGTKLELKR
notes: Murine
Take B4: the binding result in test [1] is “binds”.

B5: 5anG12 (antibody, V domains shown)
VH: EVQLQQSGPELVKPGASVRISCKASGYTFNDYYYMNWVKQSHGKSLEWIGYIFPKTGGTHYNQRFKGKATLTVDKSSSTAYMELRSLTSEDSAVYYCASGPFAYWGQGTLVTVSA
VL: QIVLTQSPAIMSASPGEKVTMTCSASSSISYMHWYQQKPGTSPKRWIYDTSKLASGVPARFSGSGSGTSYSLTISSMEAEDAATYYCHQRSSYPWTFGGGTKLEIKR
notes: Murine
For the molecule B5, the binding result in test [1] is given as “binds”.

B6: 5anE11 (antibody, V domains shown)
VH: EVQLQQSGPELVKPGASVRISCKASGYTFSDYYYMNWVKKSHGKSLEWIGYIFPKTGGTHYNQRFKGKATLTVDKSSSTAYMELRSLTSEDSAVYYCASGPFAYWGQGTLVTVSA
VL: DIVMTQSQKFMSTSVGDRVSVTCKASQNVGTNVAWYQQKPGQSPKALIYSASYRYSGVPDRFTGSGSGTDFTLTISNVQSEDLAEYFCQQYNSYPWTFGGGTKLEIKR
notes: Murine
In the case of B6, the binding result in test [1] is “binds”.

B7: 5an052 (antibody, V domains shown)
VH: EVQLQQSGPELVKPGASVRISCKASGYTFNDYYYMNWVKQSHGKSLEWIGYIFPKTGGTHYNQRFKGKATLTVDKSSSTAYMELRSLTSEDSAVYYCASGPFAYWGQGTLVTVSA
VL: QIVLTQSPAIMSASPGEKVTLTCSASSSVSSSYLYWYQQKPGSSPKLWIYSTSNLASGVPARFSGSGSGTSYSLTISTVEAEDAASYFCHQWSSYPPTFGGGTKLEIKR
notes: Murine
Consider B7, for which, in test [1], the binding result is on record as “binds”.

B8: 5an054ME (antibody, V domains shown)
VH: EVQLQQSGPELVKPGASVKISCKASGYTFTDYYYMNWVKQSHGKSLEWIGYIFPNTGGTTYNQRFKGKATLTVDKSSSTAYMELRSLTSEDSAVYYCASGPFAYWGQGTLVTVSA
VL: QIVLTQSPVIMSASPGEKVTMTCSASSSVSYMYWYQQKPGSSPRLLIYDTSNLASGVPVRFSGSGSGTSYSLTISRMEAEDAATYYCQQWSSYPPTFGAGTKLELKR
notes: Murine
Consider B8, for which the binding result in test [1] is listed as “binds”.

B9: 5an053 (antibody, V domains shown)
VH: EVQMQQSGPELVKPGASVKISCKASGYTFSDYYYMNWVKKSHGKSLEWIGYIFPKTGGTNYNQRFKGKATLTVDKSSSTAYMELRSLTSEDSAVYYCASGPFAYWGQGTLVTVSA
VL: EIVLTQSPVIMSASPGEKVTMICSASSSISYMHWYQQKPGTSPKRWIYDTSKLASGVPARFSGSGSGTSYSLTISIMEAEDAATYYCHQRSSYPWTFGGGTKLEIKR
notes: Murine
For the molecule B9, in test [1], the binding result is recorded as “binds”.

B10: 5anG10 (antibody, V domains shown)
VH: EVQLQQSGPELVKPGASVRISCKASGYTFNDYYYMNWVKQSHGKSLEWIGYIFPKTGGTHYNQRFKGKATLTVDKSSSTAYMELRSLTSEDSAVYYCASGPFAYWGQGTLVTVSA
VL: QIVLTQSPAIMSASPGEKVTMTCSASSSISYMHWYQQKPGTSPKRWIYDTSKLASGVPARFSGSGSGTSYSLTISSMEAEDAATYYCHQRRSYPWTFGGGTKLEIKR
notes: Murine
In the case of B10, the binding result in test [1] is on record as “binds”.

B11: 5an109 (antibody, V domains shown)
VH: EVQLQQSGPELVKPGASVKISCKASGYTFSDYYYMNWVKKSHGKSLEWIGYIFPKTGGTNYNQRFKGKATLTVDKSSSTAYMELRSLTSEDSAVYYCASGPFAYWGQGTLVTVSA
VL: EIVLTQSPAIMSASPGEKVTMTCSASSSVSYMYWYQQKPGSSPRLLIYDTSNLASGVPVRFSGSGSGTSYSLTISRMEAEDAATYYCQQWSSYPPTFGGGTKLEIKR
notes: Murine
For B11, the binding result in test [1] is on record as “binds”.

B12: 5an055 (antibody, V domains shown)
VH: EVQLQQSGPELVKPGASVKISCKASGYTFSDYYYMNWVKKSHGKSLEWIGYIFPKTGGTNYNQRFKGKATLTVDKSSSTAYMELRSLTSEDSAVYYCASGPFAYWGQGTLVTVSA
VL: EIVLTQSPAIMSASPGEKVTLTCSASSSVSSSYLYWYQQKPGSSPKLWIYSTSNLASGVPARFSGSGSGTSYSLTISSMEAEDAASYFCHQWSSYPPTFGGGTKLEIKR
notes: Murine
Turning to B12, the binding result in test [1] was “binds”.

B13: 5an181 (antibody, V domains shown)
VH: EVQLQQSGPELVKPGASVKISCKASGYTFSDYYYMNWVKKSHGKSLEWIGYIFPKTGGTNYNQRFKGKATLTVDKSSSTAYMELRSLTSEDSAVYYCASGPFAYWGQGTLVTVSA
VL: EIVLTQSPAIMSASPGEKVTMTCRASSSVSSSYLHWYQQKSGASPKLWIYSTSNLASGVPARFSGSGSGTSYSLTISSVEAEDAATYYCQQYSGYPLTFGAGTKLELKR
notes: Murine
As to B13, in test [1], the binding result is given as “binds”.

B14: 5an110ME (antibody, V domains shown)
VH: EVQLQQSGPELVKPGASVKISCKASGYTFSDYYYMNWVKKSHGKSLEWIGYIFPKTGGTNYSQRFKGKATLTVDKSSSTAYMELRSLTSEDSAVYYCASGPFAYWGQGTLVTVSA
VL: DIVMTQSQKFMSTSVGDRVSVTCKASQNVGTNVAWYQQKPGQSPKALIYSASYRYSGVPDRFTGSGSGTDFTLTISNVQSEDLAEYFCQQYNSYPFTFGSGTKLEIKR
notes: Murine
Regarding B14, the binding result in test [1] is reported as “binds”.

B15: 5an188ME (antibody, V domains shown)
VH: EVQLQQSGAELVKPGTSVKLSCKASGYTFTSYWMHWVKQRPGQGLEYIGEIHPSSGHTNYHEKFKSKATLTVDKSSSTAYMQLSSLTSEDSAVYYCARASLLRAYAMDYWGQGTSVTVSS
VL: DIVLTQSPASLAVSLGQRATISCRASESVDSYGNSFMHWYQQKPGQPPKLLIYLASNLESGVPARFSGSGSRTDFTLTIDPVEADDAATYYCQQNNEDPLTFGAGTKLELKR
notes: Murine
In the case of B15, in test [1], the binding result is “binds”.

B16: 5an185ME (antibody, V domains shown)
VH: EVQPQQSGPELVKPGSSVKISCKASGYTFTDYSMDWVKQSHGKSLEWIGAIHLNTGYTNYNQKFKGKATLTVDKSSSTAYMELRSLTSEDSAVYYCARGFYDGYSPMDYWGQGTSVTVSS
VL: DIVLTQSPASLAVSLGQRATISCRASESVDSYGNSFMHWYQQKPGQPPKLLIYRASNLESGIPARFSGSGSRTDFTLTINPVEADDVATYYCQQSNEDPLTFGAGTKLELKR
notes: Murine
Consider B16, for which the binding result in test [1] is given as “binds”.

B17: 5an183 (antibody, V domains shown)
VH: EVQLQQPGSVLVRPGATVKLSCKASGFTFTSSWMHWAKQRPGQGLEWIGEIHTSGHTNYNEKFKGKATLTLDTSSSTAYVDISSLTSEDSAVYYCARGGLRRGYAMDYWGQGTSVTVSS
VL: DIVLTQSPASLAVSLGQRATISCRASESVDSYGNSFMHWYQQKPGQPPKLLIYRASNLESGIPARFSGSGSRTDFTLTINPVEADDVATYYCQQSNEDPLTFGAGTKLELKR
notes: Murine
For the molecule B17, the binding result in test [1] was “binds”.

The record behind these values is patent US20130224187A1 (Alexion, published 2013).
